B1: SOAT1 (parent)
chain: KSAAMLAVFAVSAVVHEYALAVCL

Variants of: B1
Assay: protein stability index of a GFP-peptide fusion (GPS, HEK-293T) (PSI 1-6); higher = more stable
Conditions: c terminus: a fixed tail appended
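Further: lentivirally expressed fusions sorted by FACS into six bins by GFP to DsRed ratio, PSI derived from sequencing read proportions per bin multiplied by bin number.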

First: KSAAMLAVRAVSAVVHEYALAVCL [F9R]
Second: DSAAMLAVFAVSAVVHEYALAVCL [K1D]
The protein stability index of the first is lower: 2.15 for the first, 4.34 for the second.

First: KSIAMLAVFAVSAVVHEYALAVCL [A3I]
Second: KSAAMLADFAVSAVVHEYALAVCL [V8D]
The protein stability index of the first is higher: 3.19 for the first, 2.77 for the second.

Compared with KSAAMMAVFAVSAVVHEYALAVCL [L6M], KSQAMLAVFAVSAVVHEYALAVCL [A3Q] is lower in protein stability index: 4.28 for the first, 3.47 for the second.

Compared with KSSAMLAVFAVSAVVHEYALAVCL [A3S], KSAAMLIVFAVSAVVHEYALAVCL [A7I] is lower in protein stability index: 2.25 for the first, 1.49 for the second.

First: KSAAMLAVFSVSAVVHEYALAVCL [A10S]
Second: KSAAMLAVWAVSAVVHEYALAVCL [F9W]
The protein stability index of the first is higher: 3.12 for the first, 3.01 for the second.

First: KSAAMLAVFAVSAVVHEYALAVCK [L24K]
Second: KSPAMLAVFAVSAVVHEYALAVCL [A3P]
The protein stability index of the first is higher: 4.06 for the first, 3.72 for the second.

Compared with KSAAMLAVFAVSAVVHEYAKAVCL [L20K], KSAAMCAVFAVSAVVHEYALAVCL [L6C] is higher in protein stability index: 2.58 for the first, 3.42 for the second.

Going from KSAAMNAVFAVSAVVHEYALAVCL [L6N] to MSAAMLAVFAVSAVVHEYALAVCL [K1M], the protein stability index falls from 3.55 to 2.64.

Going from KSKAMLAVFAVSAVVHEYALAVCL [A3K] to KSAAMLAVFAVSAVVHEMALAVCL [Y18M], the protein stability index falls from 2.88 to 1.85.

Going from KSAAMLAVFAVTAVVHEYALAVCL [S12T] to VSAAMLAVFAVSAVVHEYALAVCL [K1V], the protein stability index falls from 2.46 to 1.84.

First: KSAAMLAVFAVSKVVHEYALAVCL [A13K]
Second: KSAAMLAVFAVSAVVHEYACAVCL [L20C]
The protein stability index of the first is lower: 1.37 for the first, 2.93 for the second.

Compared with KSAAPLAVFAVSAVVHEYALAVCL [M5P], KSAAMLAIFAVSAVVHEYALAVCL [V8I] is lower in protein stability index: 3.6 for the first, 1.62 for the second.

Compared with KSAAMLAVFAVSFVVHEYALAVCL [A13F], KSAAMLAVFAVSAVVHEYALSVCL [A21S] is higher in protein stability index: 2.17 for the first, 4.49 for the second.

First: KSAAMLAVFAVSAVVHEYALAVCP [L24P]
Second: KSAADLAVFAVSAVVHEYALAVCL [M5D]
The protein stability index of the first is lower: 2.62 for the first, 3.48 for the second.

First: KMAAMLAVFAVSAVVHEYALAVCL [S2M]
Second: KSAAMLAVFAVSAVVHEYALFVCL [A21F]
The protein stability index of the first is lower: 2.99 for the first, 3.01 for the second.

Compared with KSAAFLAVFAVSAVVHEYALAVCL [M5F], KSAAMLAVFAVSAVVHEYALAVCI [L24I] is higher in protein stability index: 2.22 for the first, 2.33 for the second.

Compared with KSAAMLAVFGVSAVVHEYALAVCL [A10G], KSAAMLAVFAVSAVVTEYALAVCL [H16T] is lower in protein stability index: 3.62 for the first, 2.1 for the second.

Going from KSAAGLAVFAVSAVVHEYALAVCL [M5G] to KSAAMLAVFAVSAVVHEYAEAVCL [L20E], the protein stability index rises from 3.1 to 3.95.

Going from KSAAMLAVFAVSAVVHEYANAVCL [L20N] to KSAAMHAVFAVSAVVHEYALAVCL [L6H], the protein stability index falls from 4.2 to 2.73.

Going from KSAAMLAVFAVSAVVHGYALAVCL [E17G] to KSAAMLAVFAVSAVVHEYRLAVCL [A19R], the protein stability index rises from 1.39 to 3.46.

First: KSAAMLAVFAVSAVVHEPALAVCL [Y18P]
Second: KSAAMLAVFAVSAVVHEYASAVCL [L20S]
The protein stability index of the first is lower: 2.23 for the first, 2.62 for the second.

Compared with KEAAMLAVFAVSAVVHEYALAVCL [S2E], WSAAMLAVFAVSAVVHEYALAVCL [K1W] is lower in protein stability index: 3.57 for the first, 3.4 for the second.

Compared with KSAAMLAVFAVSAVVHEYALAVVL [C23V], KSAAMLAVFAVSAVVHEYALAVDL [C23D] is higher in protein stability index: 2.34 for the first, 3.23 for the second.

First: KSAAMLAVFAVWAVVHEYALAVCL [S12W]
Second: KSAAMLAVFAVSAVVHEYALAVCN [L24N]
The protein stability index of the first is higher: 2.99 for the first, 2.87 for the second.

Compared with KSAAMLAVFAVSAVVHEYALDVCL [A21D], KSAAMLAVFAVSAVVPEYALAVCL [H16P] is lower in protein stability index: 3.15 for the first, 2.51 for the second.

Going from KSAACLAVFAVSAVVHEYALAVCL [M5C] to KSAAMLAVFVVSAVVHEYALAVCL [A10V], the protein stability index falls from 3.11 to 3.03.

Going from KSAAMLAVFAVSAVVHEYALAVAL [C23A] to KSAAMLAVFAVIAVVHEYALAVCL [S12I], the protein stability index rises from 1.18 to 3.04.

First: KSAAMLAVFAVSAVVLEYALAVCL [H16L]
Second: KSAAMLAVFAVSAVVHEYALATCL [V22T]
The protein stability index of the first is lower: 2.94 for the first, 3.08 for the second.

First: KSAAMLAVFAVPAVVHEYALAVCL [S12P]
Second: KSYAMLAVFAVSAVVHEYALAVCL [A3Y]
The protein stability index of the first is lower: 2.41 for the first, 2.83 for the second.

Going from KSAAMLAVFAVSAVHHEYALAVCL [V15H] to KSAAMLAVFAVSAVVHEYALLVCL [A21L], the protein stability index falls from 3.15 to 3.

First: KSAAMQAVFAVSAVVHEYALAVCL [L6Q]
Second: KSAAWLAVFAVSAVVHEYALAVCL [M5W]
The protein stability index of the first is higher: 2.68 for the first, 2.56 for the second.

Going from KSAAMLAVFAVSAVVSEYALAVCL [H16S] to KSAAMPAVFAVSAVVHEYALAVCL [L6P], the protein stability index rises from 2.73 to 3.78.

Going from KSAAMLAVFAVSAVVHEQALAVCL [Y18Q] to KSAAMFAVFAVSAVVHEYALAVCL [L6F], the protein stability index falls from 2.56 to 2.21.

Going from KSAAMLAVFAVSAVVHEYALAVCA [L24A] to KSAAMLAVFAVSNVVHEYALAVCL [A13N], the protein stability index falls from 3.7 to 2.97.

Compared with KSAAMLAVFANSAVVHEYALAVCL [V11N], KSAAMLAVFAVSAVVHEYQLAVCL [A19Q] is lower in protein stability index: 3.47 for the first, 2.44 for the second.

Compared with KSAAMLAVVAVSAVVHEYALAVCL [F9V], KSAHMLAVFAVSAVVHEYALAVCL [A4H] is higher in protein stability index: 1.47 for the first, 3.89 for the second.

First: KSAAMLAVFAVSAVGHEYALAVCL [V15G]
Second: KSAAMRAVFAVSAVVHEYALAVCL [L6R]
The protein stability index of the first is higher: 2.69 for the first, 2.02 for the second.

Going from KSAAMLAVFAVSAVVHEYALAVCD [L24D] to KLAAMLAVFAVSAVVHEYALAVCL [S2L], the protein stability index falls from 3.9 to 2.66.

First: KSAAMLANFAVSAVVHEYALAVCL [V8N]
Second: KCAAMLAVFAVSAVVHEYALAVCL [S2C]
The protein stability index of the first is higher: 3.98 for the first, 2.54 for the second.

First: KSAAMLGVFAVSAVVHEYALAVCL [A7G]
Second: KSAAMLHVFAVSAVVHEYALAVCL [A7H]
The protein stability index of the first is higher: 4.09 for the first, 2.91 for the second.

Compared with KSAAMLWVFAVSAVVHEYALAVCL [A7W], KSAAMLAVFAVSAVVHEFALAVCL [Y18F] is higher in protein stability index: 2.69 for the first, 4.1 for the second.

First: HSAAMLAVFAVSAVVHEYALAVCL [K1H]
Second: KSAARLAVFAVSAVVHEYALAVCL [M5R]
The protein stability index of the first is lower: 2.28 for the first, 4.56 for the second.

Compared with KSAAMLAVFAVSAVVHCYALAVCL [E17C], KSAAMLAVFAVQAVVHEYALAVCL [S12Q] is higher in protein stability index: 2.5 for the first, 3.61 for the second.

Going from ESAAMLAVFAVSAVVHEYALAVCL [K1E] to KSAAMLAVFAPSAVVHEYALAVCL [V11P], the protein stability index rises from 3.54 to 4.61.

Going from KSAAMLAVHAVSAVVHEYALAVCL [F9H] to KSDAMLAVFAVSAVVHEYALAVCL [A3D], the protein stability index falls from 3.12 to 2.23.

Compared with CSAAMLAVFAVSAVVHEYALAVCL [K1C], KSAYMLAVFAVSAVVHEYALAVCL [A4Y] is higher in protein stability index: 1.84 for the first, 2.44 for the second.

Going from KSAAMLAVFAVSAVVHEYAIAVCL [L20I] to KSAAMLAVFQVSAVVHEYALAVCL [A10Q], the protein stability index rises from 1.49 to 3.2.

Reference: the supplement of paper PMC10567573
